# Experiment: Particle size of reconstituted freeze dried Factor XI by dynamic light scattering
# Format: physicochemical
# Conditions: sample exposed to a pulsed electromagnetic field compared to the control
# Text: Experiment 1 was repeated but with Hemoleven (Factor XI) in place of the Factor VIII.
substance,measurement,value
"Factor XI: Hemoleven (Factor XI), blood clotting factor",% volume of larger particles,significant reduction

# From US20250083113A1, “Apparatus for Improving Hydration and/or Reducing Particle Size of a Product and a Method of Use Thereof” (St Andrews Pharmaceutical Technology Limited, priority 2021, published 2025)
